# Test results published in PMC7311918.
# Tests used:
# [1] = target: SARS-CoV S 2P trimer (S ectodomain, residues 12-1193) (SARS-CoV) (UniProt P59594); assay: SEC-MALS
# [2] = target: MERS-CoV S 2P trimer (S ectodomain, residues 19-1294) (MERS-CoV) (UniProt K9N5Q8); assay: SEC-MALS
Substance,stoichiometry N [1],stoichiometry N [2]
"SARS-CoV S 2P trimer (S ectodomain, residues 12-1193) (from UniProt P59594 12-1193) (natural protein)",3,
"MERS-CoV S 2P trimer (S ectodomain, residues 19-1294) (from UniProt K9N5Q8 19-1294) (natural protein)",,3
